Source: IntAct's records for PubMed 20006610

B1: Retinol dehydrogenase 12 (Homo sapiens), Q96NR8 (parent)
chain: MLVTLGLLTSFFSFLYMVAPSIRKFFAGGVCRTNVQLPGKVVVITGANTGIGKETARELASRGARVYIACRDVLKGESAASEIRVDTKNSQVLVRKLDLSDTKSIRAFAEGFLAEEKQLHILINNAGVMMCPYSKTADGFETHLGVNHLGHFLLTYLLLERLKVSAPARVVNVSSVAHHIGKIPFHDLQSEKRYSRGFAYCHSKLANVLFTRELAKRLQGTGVTTYAVHPGVVRSELVRHSSLLCLLWRLFSPFVKTAREGAQTSLHCALAEGLEPLSGKYFSDCKRTWVSPRARNNKTAERLWNVSCELLGIRWE

Variants of: B1
Conditions: with ubc_human UBC

| effect of a mutation on the interaction | Variant |
| --- | --- |
| increasing interaction | T49M |

Variants of: B1
Conditions: with ubc_human UBC
Remark: another data set of the same source

| effect of a mutation on the interaction | Variant |
| --- | --- |
| increasing interaction | I51N |
